According to PMC2187783:

Assays:
[1] = biological target: PR97 chimeric class II beta chain (beta1 domain of DP, beta2 domain of DR) (human)
[2] = biological target: RP97 chimeric class II beta chain (beta1 domain of DR, beta2 domain of DP) (human)

| Table II, DRa Percent: percentage of cells binding the mAb SG465 [1] | Table II, DRa Percent: percentage of cells binding the mAb SG465 [2] | Table II, DPa Percent: percentage of cells binding the mAb SG465 [1] | Table II, DPa Percent: percentage of cells binding the mAb SG465 [2] | Substance |
| --- | --- | --- | --- | --- |
| 0% | 54% |  |  | HLA-DR alpha chain (from UniProt P01903 26-254) (natural protein) |
|  |  | 22% | 0% | HLA-DP alpha chain (from UniProt P20036 29-260) (natural protein) |
